Data: patent publication US20230382991A1
“And” between values parts separate entries of the source, which are not always exact repeats. Identical values can stand only once.

How the values were obtained:
[1] = target: cynomolgus macaque LILRB1.2 expressed on stably transduced HEK293T cells (cynomolgus macaque)
[2] = target: cynomolgus macaque LILRB2.1 expressed on stably transduced HEK293T cells (cynomolgus macaque)
[3] = target: cynomolgus macaque LILRB4 expressed on stably transduced HEK293T cells (cynomolgus macaque)

Substance: cynomolgus macaque Mafa-A1*063 SIV gag GW9 (…)-APC tetramer (peptide-MHC)
- % cells in the tetramer+ gate [1]: 51.7% and 53%
- % cells in the tetramer+ gate [2]: 73.5% and 71%
- % cells in the tetramer+ gate [3]: 0.13%
